Source: patent US20230129812A1, “COMPOSITIONS AND METHODS FOR TREATING PULMONARY HYPERTENSION” (Acceleron Pharma Inc., priority 2020, published 2023)
Where a chain is given by its changes, count along the chain named. In names and notes the source's numbering stands.

B1: ActRIIB(L79D 20-134)-hFc: ActRIIB amino acids 20-134 with an L79D substitution fused to a human Fc domain (protein)
chain: GRGEAETRECIYYNANWELERTNQSGLERCEGEQDKRLHCYASWRNSSGTIELVKKGCWDDDFNCYDRQECVATEENPQVYFCCCEGNFCNERFTHLPEAGGPEVTYEPPPTAPTGGGTHTCPPCPAPELLGGPSVFLFPPKPKDTLMISRTPEVTCVVVDVSHEDPEVKFNWYVDGVEVHNAKTKPREEQYNSTYRVVSVLTVLHQDWLNGKEYKCKVSNKALPVPIEKTISKAKGQPREPQVYTLPPSREEMTKNQVSLTCLVKGFYPSDIAVEWESNGQPENNYKTTPPVLDSDGSFFLYSKLTVDKSRWQQGNVFSCSVMHEALHNHYTQKSLSLSPGK
B2: ActRIIB(L79E 20-134)-hFc: alternative form with a glutamate rather than an aspartate at position 79 (protein)
chain: B1 chain with D60E
B3: ActRIIB(A24N 20-134)-hFc: ActRIIB-Fc variant with A24N substitution, residues 20-134 (protein)
chain: B1 chain with A5N, D60L
B4: ActRIIB(K74A 20-134)-hFc: ActRIIB-Fc variant with K74A substitution, residues 20-134 (protein)
chain: B1 chain with K55A, D60L
B5: ActRIIB(R64K 20-134)-hFc: ActRIIB-Fc variant with R64K substitution, residues 20-134 (protein)
chain: B1 chain with R45K, D60L
B6: ActRIIB(R64K 20-129)-hFc: ActRIIB-Fc variant with R64K substitution, residues 20-129 (protein)
chain: GRGEAETRECIYYNANWELERTNQSGLERCEGEQDKRLHCYASWKNSSGTIELVKKGCWLDDFNCYDRQECVATEENPQVYFCCCEGNFCNERFTHLPEAGGPEVTYEPPGGGTHTCPPCPAPELLGGPSVFLFPPKPKDTLMISRTPEVTCVVVDVSHEDPEVKFNWYVDGVEVHNAKTKPREEQYNSTYRVVSVLTVLHQDWLNGKEYKCKVSNKALPVPIEKTISKAKGQPREPQVYTLPPSREEMTKNQVSLTCLVKGFYPSDIAVEWESNGQPENNYKTTPPVLDSDGSFFLYSKLTVDKSRWQQGNVFSCSVMHEALHNHYTQKSLSLSPGK
B7: ActRIIB(P129S, P130R 20-134)-hFc: ActRIIB-Fc variant with P129S and P130R substitutions, residues 20-134 (protein)
chain: B1 chain with D60L, P110S, P111R

What follows are molecules tested against T1, GDF11 (Homo sapiens, UniProt O95390) (assay: A-204 reporter gene assay, pGL3(CAGA)12 luciferase). Conditions: A-204 reporter gene assay.
T1 sequence (O95390 299-407): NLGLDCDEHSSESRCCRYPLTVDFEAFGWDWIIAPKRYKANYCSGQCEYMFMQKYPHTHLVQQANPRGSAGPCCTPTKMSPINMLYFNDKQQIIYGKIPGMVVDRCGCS
Assay type: cell-based
Set-up: key to GDF11 Inhibition Activity: +: Poor activity (roughly 1 × 10^−6 KI); ++: Moderate activity (roughly 1 × 10^−7 KI); +++: Good (wild-type) activity (roughly 1 × 10^−8 KI); ++++: Greater than wild-type activity
From the text: (§1) An A-204 reporter gene assay was used to evaluate the effects of ActRIIB-Fc proteins and ActRIIB variant Fc fusion polypeptides on signaling by GDF-11 and activin A. Cell line: human rhabdomyosarcoma (derived from muscle). Reporter vector: pGL3(CAGA)12 (described in Dennler et al, 1998, EMBO 17: 3091-3100). The CAGA12 motif is present in TGF-beta responsive genes (e.g., PAI-1 gene), so this vector is of general use for factors signaling through SMADs.
(§2) Day 1: Split A-204 cells into 48-well plate.
(§3) Day 2: A-204 cells transfected with 10 ug pGL3(CAGA)12 or pGL3(CAGA)12(10 ug)+pRLCMV (1 pg) and Fugene.
(§4) Day 3: Add factors (diluted into medium+0.1% BSA). Inhibitors need to be preincubated with factors for 1 hr before adding to cells. Six hrs later, cells were rinsed with PBS and lysed.
(§5) This is followed by a luciferase assay.
(§6) Activity of ActRIIB-Fc proteins and ActRIIB variant Fc fusion polypeptides was tested in a cell-based assay as described above. Some variants were tested in different C-terminal truncation constructs. As discussed above, truncations of five or fifteen amino acids caused reduction in activity. […]

**Q.** With B1 as the molecule, how does the “inhibition of GDF11 signaling” value read?
**A.** Its value is “almost wild-type inhibition of GDF11”.

**Q.** B2 was tested. Which “inhibition of GDF11 signaling” value did it give?
**A.** The value was “almost wild-type inhibition of GDF11”.

**Q.** How did the “inhibition of GDF11 signaling” value turn out when B3 was run?
**A.** The value was “equivalent to the wild-type molecule”.

Same assay, conditions: Table 9; cell-based A-204 assay

**Q.** B1 was tested. Which “GDF11 Inhibition Activity” value did it give?
**A.** Its value is “+++ (Good (wild-type) activity (roughly 1 × 10^−8 KI))”.

**Q.** B2 was tested. Which “GDF11 Inhibition Activity” value did it give?
**A.** Its value is “+++ (Good (wild-type) activity (roughly 1 × 10^−8 KI))”.

**Q.** B3 was tested. Which “GDF11 Inhibition Activity” value did it give?
**A.** The value was “+++ (Good (wild-type) activity (roughly 1 × 10^−8 KI))”.

**Q.** Which “GDF11 Inhibition Activity” value does the source give for B4 here?
**A.** Its value is “++++”.

**Q.** Which “GDF11 Inhibition Activity” value does the source give for B5 here?
**A.** Its value is “+++ (Good (wild-type) activity (roughly 1 × 10^−8 KI))”.

**Q.** For B6, which “GDF11 Inhibition Activity” value is on record?
**A.** Its value is “+++ (Good (wild-type) activity (roughly 1 × 10^−8 KI))”.

The molecules below were run against T2, activin A (Homo sapiens, UniProt P08476) (assay: Biacore ligand affinity of ActRIIB-hFc forms, steady-state affinity fit). Conditions: Table 12; Kd by steady-state affinity fit; read-out: Activin A (Kd e−11).
T2 sequence (P08476 311-426): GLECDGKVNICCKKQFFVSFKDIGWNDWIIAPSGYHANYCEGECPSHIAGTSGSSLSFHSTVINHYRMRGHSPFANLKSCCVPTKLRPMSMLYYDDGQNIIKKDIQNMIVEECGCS
Assay type: binding
Protocol: (§7) Affinities of several ligands for ActRIIB(25-131)-hFc and its full-length counterpart ActRIIB(20-134)-hFc were evaluated in vitro with a Biacore™ instrument, and the results are summarized in Table 8 below. Kd values were obtained by steady-state affinity fit due to very rapid association and dissociation of the complex, which prevented accurate determination of kon and koff. ActRIIB(25-131)-hFc bound, for example, activin A, activin B, and GDF11 with high affinity.
(§8) The affinity of ActRIIB variants and other ActRIIB-hFc proteins for several ligands was evaluated in vitro with a Biacore™ instrument. Kd values were obtained by steady-state affinity fit due to the very rapid association and dissociation of the complex, which prevented accurate determination of kon and koff.

**Q.** How did the Kd turn out when B1 was run?
**A.** Its Kd is 13.5 nM.

Each molecule was assayed against T1, GDF11 in the same assay as above. Conditions: Table 12; Kd by steady-state affinity fit; read-out: GDF11 (Kd e−11).
Assay type: binding
Protocol: as §7, §8

**Q.** B1 was tested. Which Kd did it give?
**A.** Its Kd is 0.123 nM.

The molecules below were run against T3, activin B (Homo sapiens, UniProt P09529) in the same assay as above. Conditions: Table 12; Kd by steady-state affinity fit; read-out: Activin B (Kd e−11).
T3 sequence (P09529 293-407): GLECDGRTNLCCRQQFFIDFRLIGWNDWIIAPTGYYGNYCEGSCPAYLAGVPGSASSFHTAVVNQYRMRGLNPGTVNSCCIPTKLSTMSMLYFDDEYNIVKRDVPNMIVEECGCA
Assay type: binding
Protocol: as §7, §8

**Q.** For B1, which Kd is on record?
**A.** The Kd was 0.788 nM.

These molecules were tested against T2, activin A (assay: A-204 reporter gene assay, pGL3(CAGA)12 luciferase). Conditions: A-204 reporter gene assay.
Assay type: cell-based
Set-up: key to Activin Inhibition Activity: +: Poor activity (roughly 1 × 10^−6 KI); ++: Moderate activity (roughly 1 × 10^−7 KI); +++: Good (wild-type) activity (roughly 1 × 10^−8 KI); ++++: Greater than wild-type activity
From the text: as §1, §2, §3, §4, §5, §6

**Q.** Which “inhibition of activin A signaling” value does the source give for B1 here?
**A.** Its value is “substantial loss of activin A inhibition”.

**Q.** How did the “inhibition of activin A signaling” value turn out when B2 was run?
**A.** Its value is “substantial loss of activin A inhibition”.

**Q.** How did the “inhibition of activin A signaling” value turn out when B3 was run?
**A.** Its value is “equivalent to the wild-type molecule”.

Same assay, conditions: Table 9; cell-based A-204 assay

**Q.** Which “Activin Inhibition Activity” value does the source give for B1 here?
**A.** Its value is “+ (Poor activity (roughly 1 × 10^−6 KI))”.

**Q.** How did the “Activin Inhibition Activity” value turn out when B2 was run?
**A.** Its value is “+ (Poor activity (roughly 1 × 10^−6 KI))”.

**Q.** With B3 as the molecule, how does the “Activin Inhibition Activity” value read?
**A.** Its value is “+++ (Good (wild-type) activity (roughly 1 × 10^−8 KI))”.

**Q.** With B4 as the molecule, how does the “Activin Inhibition Activity” value read?
**A.** The value was “++++”.

**Q.** For B5, which “Activin Inhibition Activity” value is on record?
**A.** Its value is “+++ (Good (wild-type) activity (roughly 1 × 10^−8 KI))”.

**Q.** B6 was tested. Which “Activin Inhibition Activity” value did it give?
**A.** The value was “+++ (Good (wild-type) activity (roughly 1 × 10^−8 KI))”.

Each molecule was assayed against T2, activin A (assay: Biacore assay, ActRIIB-Fc captured with anti-hFc antibody, ligand injected (Example 8)). Conditions: Activin A; Table 10.
Assay type: binding
Protocol: (§9) Binding of certain ActRIIB-Fc proteins and ActRIIB variant Fc fusion polypeptides to ligands was tested in a Biacore™ assay.
(§10) The ActRIIB-Fc variants or wild-type protein were captured onto the system using an anti-hFc antibody. Ligands were injected and flowed over the captured receptor proteins.

**Q.** B1 was tested. Which “KD (M)” value did it give?
**A.** Its value is “Low binding”.

**Q.** B2 was tested. Which “KD (M)” value did it give?
**A.** Its value is “Low binding”.

**Q.** B3 was tested. Which “Koff” value did it give?
**A.** Its value is 0.000346 s⁻¹.

**Q.** With B5 as the molecule, how does the “Koff” value read?
**A.** The value was 0.000325 s⁻¹.

**Q.** For B6, which “Koff” value is on record?
**A.** The value was 0.000628 s⁻¹.

**Q.** For B7, which “Koff” value is on record?
**A.** Its value is 0.000417 s⁻¹.

Same assay, conditions: cell-free Biacore assay, Example 8

**Q.** Which “activin A binding” value does the source give for B1 here?
**A.** Its value is “markedly decreased (non-quantifiable) binding to activin A”.

**Q.** Which “activin A binding” value does the source give for B2 here?
**A.** Its value is “markedly decreased (non-quantifiable) binding to activin A”.

**Q.** With B3 as the molecule, how does the “activin A binding” value read?
**A.** The value was “retains ligand-binding activity that is similar to that of the ActRIIB(20-134)-hFc molecule”.

The molecules below were run against T1, GDF11 in the same assay as above. Conditions: GDF11; Table 10.
Assay type: binding
Protocol: as §9, §10

**Q.** B1 was tested. Which “Koff” value did it give?
**A.** The value was 0.000439 s⁻¹.

**Q.** B2 was tested. Which “Koff” value did it give?
**A.** The value was 0.000274 s⁻¹.

**Q.** For B3, which “Koff” value is on record?
**A.** The value was 6.35e-05 s⁻¹.

**Q.** B5 was tested. Which “Koff” value did it give?
**A.** The value was 2.41e-05 s⁻¹.

Same assay, conditions: cell-free Biacore assay, Example 8

**Q.** For B1, which “GDF11 binding” value is on record?
**A.** Its value is “retains myostatin and GDF11 binding”.

**Q.** With B2 as the molecule, how does the “GDF11 binding” value read?
**A.** The value was “retains myostatin and GDF11 binding”.

**Q.** With B3 as the molecule, how does the “GDF11 binding” value read?
**A.** Its value is “retains ligand-binding activity that is similar to that of the ActRIIB(20-134)-hFc molecule”.

These molecules were tested against T4, GDF8 (Homo sapiens, UniProt O14793) in the same assay as above. Conditions: GDF8; Table 10.
T4 sequence (O14793 267-375): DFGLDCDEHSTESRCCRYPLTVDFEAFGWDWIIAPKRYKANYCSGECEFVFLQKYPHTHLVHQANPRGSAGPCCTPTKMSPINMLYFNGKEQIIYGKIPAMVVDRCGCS
Assay type: binding
Protocol: as §9, §10

**Q.** Which “Koff” value does the source give for B1 here?
**A.** The value was 0.00083 s⁻¹.

**Q.** Which “Koff” value does the source give for B2 here?
**A.** The value was 0.0009 s⁻¹.

**Q.** B4 was tested. Which “Koff” value did it give?
**A.** The value was 2.03e-05 s⁻¹.

**Q.** With B5 as the molecule, how does the “Koff” value read?
**A.** The value was 4.71e-05 s⁻¹.

**Q.** For B6, which “Koff” value is on record?
**A.** The value was 0.000209 s⁻¹.

**Q.** For B7, which “Koff” value is on record?
**A.** Its value is 0.00018 s⁻¹.

Same assay, conditions: cell-free Biacore assay, Example 8

**Q.** For B1, which “myostatin (GDF8) binding” value is on record?
**A.** The value was “retains myostatin and GDF11 binding”.

**Q.** Which “myostatin (GDF8) binding” value does the source give for B2 here?
**A.** Its value is “retains myostatin and GDF11 binding”.
